In a protein production outcome set (Wang et al. 2014):

Experiment: label from the status in PepcDB records

| Sequence | protein production |
| --- | --- |
| MGHHHHHHSHMSFVECPYHSPAERLVAEADEGGPSAITGMGLCFRCLLFSFSGRSGVEGGRVDLNVFGSLGLQPWIGSSRCWGGPCSSALRCGWFSSWPPPSKSAIPIGGGSRGAGRVSRWPPPHWLEAWRVSPRPL | failed |
| MLKFNKVFMYITASALSVSLWTCTSFAQQNKTGVTTASMLNMRENPSTSTKIIDQIPNGTKVDIIETSNGWYKISYNGKTGWVYGSYVKVTETPKLTVTDETILATLNKGSTGNSSTNSSTNNSAVNNSSSQVVDETIQKPAQNAASGENTENTVVKTGIVKASALNVRQGPGTSYSIINQLSNGAKVNIIKEESGWYQIKLANGSTGWVSGTYVNVNTTIASRGGLSENSAPAASNNSDVSGVRQQVVEYAKKFLGVKYVYGGNSPSQGFDCSGFVKYVFSNFGINLERVAASQAKQGTWVSKDQLLPGDLVFFDTDGGHNYINHSGIYIGDGKFIHASSGSGKKSVVISDLTSGFYANTYMTARRVLN | failed |
| MKLRHCLIIVFACCAALWSESPSIADDAVRTSLAGLEWHVVTDVWPPFRIEQETGLVGIDVDILKALSTSLGLRLRISRAPWGRCLKMLETGAADAMIGLAKSAEREVYIRYVPTSYYTCSPRFYILAGARRAVLTYDDLEGMRVGYVAQSRYFEPFDSDTKLQKYAVPTERQLLELLLAGRVDVMVGTDCQVDYELAEAGLLERVVVAPYRPDAHTRLYLGFSRKSRFVPRIALFDDAMRDLLEKGALKQIRASYLPDSSVSGR | failed |
| MSKEPIIKLDNIDVTFHQKKREINAVKDVTIHINQGDIYGIVGYSGAGKSTLVRVINLLQEPSAGKITIDDQVIYDNKVTLTSTQLREQRREIGMIFQHFNLMSQLTAEQNVAFALKHSGLSKEAKAAKVAKLLELVGLSDRAQNYPSQLSGGQKQRVAIARALANDPKILISDESTSALDPKTTKQILALLQDLNKKLGLTIVLITHEMQIVKDIANRVAVMQNGKLIEEGSVLDIFSHPRESLTQDFIKIATGIDEAMLKIEQQEVVKNLPVGSKLVQLKYAGHSTDEPLLNQIYKEFEVTANILYGNIEILDGIPVGEMVVILSGDEEKLRQACQAITDSQVQLTLLKEGGKA | failed |
| MYLKARQDELTESTIQSQEYRLEAFEQFCREEGIENLNDLSGRDLYAYRVWRREGNGKGRDEIEPITLRGQLATVRSFLRFAAEVDAVPEDLRTKVPLPTISNAGEVSASTLDPERADVILDYLQMYKYASRVHVIALLLWHTGARMGAIRGLDIDDCELEQDNPGIQFVHRPQTDTPLKNGEKGQRWNAISDHVANVLQDYIDGPREPVFDEHGRRPLVTTPQGRASTSTFRTTMYRVTRPCWRGAECPHDRDPEECEATSNRKASTCPSARSPHDVRSGRVTAYRREDVPRRVVSDRLNASDQILDKHYDRRGEREKSEQRRDYLPEV | failed |
| KYYWNNVNYDPATLFSASCLLFYVLDAIIFEHHLSSSFELQHEGYGCLLLLRYAATPYLLTAVTKYFYEQRVPISCWYAPLAVAALLSLGLLVKRFSCAYKYKYRLNSQSPIFANIETIHTYQGSRLLLSGMWGWVRQPNYLGDIVALLALAAPMALRPAWPPVLGLSLIILLLLHRATRANARNQARYHSSWQRYSTQVRSYILPRVY | failed |
| MRFSQLLLALCCLTFGAQADVFIKQEDMDLKQALEAIAKDMQLKLVSDIDSKTSSQPITQTLSGSGPMLLSKLSSVFDFDWYTFGGTLTIQSGQQYANYTYKPKNISPSQLLSEMKGAFKTNSTTKIKLVERGHSLLFSGTRKFVNDAMGYASMVDRNQFLEKGNNLEVARIEFNYVSVMDRNIATYDGQVNFPGAQSLIAAAITNIGQFTNLNDEELTSRAYRVKLSQGEKQALEEDEKSTKVQALPGTNALLIRGTQEEVKLAKRIAALIDVKRRQLLFSLKVYDISAERKENLGIDSGWLNGNRGIYDIVVPPFTETKDFVKNFQALYSNGIARSVYETNLVALENQQSQFGKKQTATLTLISDKQVKTEKIEADNSLYVTGRLLPSGQVQARIQYVEESLDEDDNEDSNRPPRVSSQSLNSEVYIQPNQTVILGGFDNTVTQQQESGVPIISSIPLLGELFKYTSESKHKYKRYVSISFQVIE | failed |
| MKFYIDDLPVLFPYPKIYPEQYNYMCDIKKTLDVGGNSILEMPSGTGKTVSLLSLTIAYQMHYPEHRKIIYCSRTMSEIEKALVELENLMDYRTKELGYQEDFRGLGLTSRKNLCLHPEVSKERKGTVVDEKCRRMTNGQAKRKLEEDPEANVELCEYHENLYNIEVEDYLPKGVFSFEKLLKYCEEKTLCPYFIVRRMISLCNIIIYSYHYLLDPKIAERVSNEVSKDSIVIFDEAHNIDNVCIESLSLDLTTDALRRATRGANALDERISEVRKVDSQKLQDEYEKLVQGLHSADILTDQEEPFVETPVLPQDLLTEAIPGNIRRAEHFVSFLKRLIEYLKTRMKVLHVISETPKSFLQHLKQLTFIERKPLRFCSERLSLLVRTLEVTEVEDFTALKDIATFATLISTYEEGFLLIIEPYEIENAAVPNPIMRFTCLDASIAIKPVFERFSSVIITSGTISPLDMYPRMLNFKTVLQKSYAMTLAKKSFLPMIITKGSDQVAISSRFEIRNDPSIVRNYGSMLVEFAKITPDGMVVFFPSYLYMESIVSMWQTMGILDEVWKHKLILVETPDAQETSLALETYRKACSNGRGAILLSVARGKVSEGIDFDHQYGRTVLMIGIPFQYTESRILKARLEFMRENYRIRENDFLSFDAMRHAAQCLGRVLRGKDDYGVMVLADRRFSRKRSQLPKWIAQGLSDADLNLSTDMAISNTKQFLRTMAQPTDPKDQEGVSVWSYEDLIKHQNSRKDQGGFIENENKEGEQDEDEDEDIEMQ | failed |
| MLYIDKATILKFDLEMLKKHRRAIQFIAVLLFIVGLLCISFPFVSGDILSTVVGALLICSGIALIVGLFSNRSHNFWPVLSGFLVAVAYLLIGYFFIRAPELGIFAIAAFIAGLFCVAGVIRLMSWYRQRSMKGSWLQLVIGVLDIVIAWIFLGATPMVSVTLVSTLVGIELIFSAASLFSFASLFVKQQ | failed |
| MAPRTYASVLTTPRGPAPLALYCPEAPECPKLEAISNLSFQQITQQAGTSNDQGFEFENTYVEHRINQEIESFVDTHHQEPLRKAAAQFRAVMKQEYPDSTCFITGSYPAGVDIFSSDIDFTVKVPTLEGANPFLKLMQLRKELSCYYTIFSKAYVQKGNIPVLQLMHAETKVSIDVTIDNDTSKRNTQLLAFYSQLDTRFPLLCKAMKAWAASCGVEGASRGRLNSFSLCLMLIHYLQTVQVLLNIQEIFPELNGDIVVEDDNYMKRDLKIEILEKGAFDFNQNTSSLAVLFIGFMKYYSEFNFKWNWISIKHGNVLKKKWSKTRVPKNGMPKDCRFIVVADPLLEIPRNCAGTVRQQNYMERIQLEFREEYERILKRKTIFNLYQCNWSRKLRKEGMERDLQIMILQDELRKLRIANLPTEEEVPWGTVVDFTSPRTFSPTNQHPKVFWCSEQTTENQRRDNLWPELLRTNPYAIFENLI | not failed |
| MRAADAPDAPLPEDRRNAPVWFAHDLEAPRCTALFPRLADRRPALVVVGGFLGSGKTTFLNNCIEYHRARERFVAVIQNEVGATGVDARLMGDGAEVLALDEGCVCCSLAGSLAGGIRAITADFTPEVILLETTGLANPLNLLAELDTLRDMVRLDAVVTVVDAANIVPTLRDSDIARDQIRGADIIVCNKCDTVDETGRAALRATLTGLNGRAALHETSFGRIHPSLFMALEGERPPRGLMPAPHGTHATHADEGFAAVRLFFSGTIDEAALAPLLQQCPGAPFRIKGIVRVTDDEAPRLVQCVGARCEVERLDGGFEGTPFLVFIGRNPDETALLEHWAALGATAEPPAPQAEADTQPAQATKSASGGQSSDATRGCHDHHLEHHHHHH | failed |
| MVQSLAKQVIHQAVEVNAQDIYIIPKGDCYELYMRIDDERRFIDVFEFNRMASLISHFKFVAGMNVGEKRRSQLGSCDYELSEGRLVSLRLSSVGDYRGQESLVIRILY | failed |
| MSLFIALCGLILAGRLILKNYNPQGVLFFVGIVMMTISIFTNNATFVDKSTGWIGFDVFEYISMVFGKQSGGLGLKIMLIGGFALLMSAIGASQVMVKLTAKPLMKLNSPYLMLALAFILGQMLSLFISSATGLGLLLMATLYPVLIRLGCSKAGVASVLASTCAIEFGPGSGNSILAAQTAGLEITEYFVGEQLPIISVLIIVVAIMHAITQRFFDRNDEKNQTLEPINYEDIESEQSAPFYYVILPMLPLFFMLTFSSLGVKTINVGMATAIILSIFISLVFEFIREREVKPVFEKLQGVFDDMGKVFASVVTLIIAGQTFSMGLKSIGAIDSMLHMASSVGLSAAVIILFMALLTFIISALMGSGNAAFFSFAPMVPQIAHKIGANTVDMILPIQLSAGFGRTISPIAGVIIAVAGISGLSPFDIVRRTLIPMVSGWLLMLILTFSKGGQLEQLMPFLIVILVLSVGVGWIMKRKNNRTQLTQ | failed |
| MNRNLLYMILRLIFVIVATVAGFYVLLYMSGLIYPFIIAFAFAYLINPVVNFLNQKLQFPRALAVLVSLILVFGAIVGLVTYLVTEAISATTYLLQLVTVKFPDIVTFAQQFALNHIMPLYDDLISKFNHLGEPQRYTITQNIQNLGTEATTQMKELLTAIISGLTNFISALPTTLTVLVFILLATFFISYDWHRLAQKARKLLPNRVHGYGKTIFVDLRKALFGFVKAQLTLVSMTTVIVLIGLLILRVPYAITIAIITGVVDLLPYLGTGAVFVPWVIYVFFTGDTAFAIGLLILYIVVIVQRQIMEPKVLSSNIGLDPLATLVALFVGFKLFGFLGLIIGPVTLVLLNTLHKANVFHDLWKYIKGSPSK | failed |
| MENMIVIMAGGRSSRMGAEKPILKVNGKPMILRVYEESTKVGETLVAISKNTPKTRELCIKEGIPLIETPGEGYVEDVRYLLKELGSFVSVSADLPFVKACDIAEVKKAFDGKTSLTGVLPLSKVPTDLRPVVYKGYVIVGLNGVGFEGEKFYELSNPLLALNVNTPEELKLANRIAKLIGLEHHHHHH | failed |
| MEFEMLETETNGTIIKVIGVGGAGGNAVQHMINKGVQGVDFVVMNTDAQALSRSRAPSVIQLGNTGLGAGAKPEMGRAAAEEARERIADALRGAHMVFITAGMGGGTGTGAAPVVAQIAKEMGILTVGVVSKPFEFEGGKRMRVAEAGSQQLEDHVDSLIVVLNDKLFEVMGDDAEMDKCFQCADDVLNNAVAGIAEIINVDGLVNVDFEDVKTVMGEQGKAMMGTATVAGVDRARLAAEQAVASPLLEGVDLSGARGVLVNITSSRSLRLSETREVMNTIKSYAADDATVIFGAVYDDAMGDALRVTVVATGLGRAAKKQQSAPMTLLRTGTDNQPISAAPQGYAASHHVSTGDYGAFDTPAVWRNSRETAASHVQALQEKGVDTYDIPAFLRKQAD | not failed |
| MRMTLRQLRIFNEVCDLRSYSRAAEEMSLTQPAVSLQVRQLEELIGQPLFEYVGKKLYMTEAAEALQLASRDIFGRLESLDMQLSDMQGSLQGQLKLAVESSCKYFIPHLFAAFKRQHPEVSLSLMVVNRAQIIRRLSDNRDDLVVMSAVPLDMGLEFLPFLNNPIVAVAPPDHPLSSRETLSLKDLEPWPLLTRETGSGTRRACEEYFKEKRVHFTQTLEVSSSEAQRECVVAGLGLAMLTRHAVCQELATGTLVELPVAELPLYRSWCVVQARDKRLSPVAHAFLAFIRTERAQISQLVERFDGRPQAV | failed |
| MSHSHSHGHSHEPTNYNRAFIISVALNTGFVVIEVVYGLAANSLALLADAGHNLSDVLGLLLAWGASFLGRRQPTPRRTYGLRRSSILAALLNAVLVLVASGAVAWEAIQRFAQPSPVSGSTIIGVAAVGIAINMGSALMFLSGRERDLNIRGAFIHLVADAAVSLGAVLAGIAIVATGWLWFDPVVSLMIVVVIIVSTWQLFQESLNLVTDAVPAGIEPLAVRTFLAELPGVSSIHDLHIWAMSTTETALTAHLIMPAGNLSDAFLVQVNQQLHDHFGIEHTTIHIETGDPSYPCPLAQENVV | failed |
| VINQVESASKVIDWPLALKRSANKADLAKEMLLGLVESLPETQLSIREAIDVQDIAQIKRLVHKLNGACCYTGTPNLAKITIQLETQLKMGLSTEELEPEFLEFFEHIEQVLFAVPEALKEMSEN | failed |
